Measurements from US6458760B1, “Method for treating tissue damaged from ischemia” (Henry Ford Health System, priority 1998, dated 2002).

Tested on: rats with middle cerebral artery occlusion
Assay: Stefin A in rat stroke model, infarcted brain tissue volume
Type: in vivo
Details: compared to animals without inhibitor
Description: The inventors have used a stroke model in rats, explained in more detail hereinbelow, to verify this. In this model, a nylon monofilament is advanced through the vasculature of anesthetized rats until it blocks the middle cerebral artery. The monofilament is left in place for two hours. Withdrawal of the monofilament initiates reperfusion of the ischemic tissue. The extent of damage is visualized seven days after the ischemic event by removing the brain of the animal and examining it in section.
The initial cathepsin inhibitor used by the inventors was a large naturally occurring molecule, stefin A (MW 15,000). In the stroke model, this molecule was administered intraventricularly in some studies prior to the occlusion and intravenously upon reperfusion in others.

B1: stefin A: large naturally occurring molecule (MW 15,000), cathepsin inhibitor, recombinant preparation, used as control (protein, UniProt P01040 1-98, looked up)
Cystatin-A: MIPGGLSEAKPATPEIQEIVDKVKPQLEEKTNETYGKLEAVQYKTQVVAGTNYYIKVRAGDNKYMHLKVFKSLPGQNEDLVLTGYQVDKNKDDELTGF
reduction in the volume of the infarcted brain tissue (administered intravenously upon reperfusion): ~40% | reduction in the volume of the infarcted brain tissue (administered intraventricularly prior to the occlusion): ~40%
